The record followed here is paper PMC11098746 (2024).

Assay in all cases: AVEXIS screen signal:noise (double-corrected)
The target in one experiment is T1, ADP262.
T1 chain: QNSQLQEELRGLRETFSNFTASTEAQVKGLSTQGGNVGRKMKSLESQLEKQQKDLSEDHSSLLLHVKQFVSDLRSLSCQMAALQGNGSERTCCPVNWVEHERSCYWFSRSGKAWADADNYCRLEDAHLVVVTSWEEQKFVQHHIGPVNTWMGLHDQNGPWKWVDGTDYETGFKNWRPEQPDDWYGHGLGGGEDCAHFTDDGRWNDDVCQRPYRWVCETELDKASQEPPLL

For a further experiment, the target named is T2, ADP155.
T2 chain: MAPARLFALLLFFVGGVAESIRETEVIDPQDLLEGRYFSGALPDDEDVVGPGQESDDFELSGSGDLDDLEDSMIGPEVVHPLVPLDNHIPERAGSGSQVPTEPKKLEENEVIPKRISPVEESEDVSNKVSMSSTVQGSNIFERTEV

In a further experiment the target is T3, ADP154.
T3 chain: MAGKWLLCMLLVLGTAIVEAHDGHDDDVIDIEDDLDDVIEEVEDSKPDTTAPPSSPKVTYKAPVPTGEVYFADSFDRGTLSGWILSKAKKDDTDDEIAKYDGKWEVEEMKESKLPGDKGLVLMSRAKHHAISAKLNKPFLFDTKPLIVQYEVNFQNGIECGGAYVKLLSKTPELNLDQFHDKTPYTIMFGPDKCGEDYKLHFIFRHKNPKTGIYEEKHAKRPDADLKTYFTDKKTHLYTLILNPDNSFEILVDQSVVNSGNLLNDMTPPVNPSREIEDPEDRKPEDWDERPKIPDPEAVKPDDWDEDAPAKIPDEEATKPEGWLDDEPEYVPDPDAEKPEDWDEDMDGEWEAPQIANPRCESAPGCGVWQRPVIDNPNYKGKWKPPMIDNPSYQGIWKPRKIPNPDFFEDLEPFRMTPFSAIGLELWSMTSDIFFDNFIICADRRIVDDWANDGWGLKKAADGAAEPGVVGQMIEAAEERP

For the next experiment, the target named is T4, ADP378.
T4 chain: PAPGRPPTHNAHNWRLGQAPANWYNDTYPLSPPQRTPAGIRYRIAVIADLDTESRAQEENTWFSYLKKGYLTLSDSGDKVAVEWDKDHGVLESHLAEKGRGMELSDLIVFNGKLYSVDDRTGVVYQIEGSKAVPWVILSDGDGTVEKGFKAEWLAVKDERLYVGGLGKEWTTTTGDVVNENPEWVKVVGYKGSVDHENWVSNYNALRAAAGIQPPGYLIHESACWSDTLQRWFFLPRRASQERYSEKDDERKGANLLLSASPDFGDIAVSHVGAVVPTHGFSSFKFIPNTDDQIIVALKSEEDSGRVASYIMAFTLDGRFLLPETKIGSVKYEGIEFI

The target in the next experiment is T5, ADP385.
T5 chain: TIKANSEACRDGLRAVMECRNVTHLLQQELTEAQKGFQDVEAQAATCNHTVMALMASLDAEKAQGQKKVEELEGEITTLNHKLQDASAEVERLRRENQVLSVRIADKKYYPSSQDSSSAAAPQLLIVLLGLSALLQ

The target in another experiment is T6, ADP318.
T6 chain: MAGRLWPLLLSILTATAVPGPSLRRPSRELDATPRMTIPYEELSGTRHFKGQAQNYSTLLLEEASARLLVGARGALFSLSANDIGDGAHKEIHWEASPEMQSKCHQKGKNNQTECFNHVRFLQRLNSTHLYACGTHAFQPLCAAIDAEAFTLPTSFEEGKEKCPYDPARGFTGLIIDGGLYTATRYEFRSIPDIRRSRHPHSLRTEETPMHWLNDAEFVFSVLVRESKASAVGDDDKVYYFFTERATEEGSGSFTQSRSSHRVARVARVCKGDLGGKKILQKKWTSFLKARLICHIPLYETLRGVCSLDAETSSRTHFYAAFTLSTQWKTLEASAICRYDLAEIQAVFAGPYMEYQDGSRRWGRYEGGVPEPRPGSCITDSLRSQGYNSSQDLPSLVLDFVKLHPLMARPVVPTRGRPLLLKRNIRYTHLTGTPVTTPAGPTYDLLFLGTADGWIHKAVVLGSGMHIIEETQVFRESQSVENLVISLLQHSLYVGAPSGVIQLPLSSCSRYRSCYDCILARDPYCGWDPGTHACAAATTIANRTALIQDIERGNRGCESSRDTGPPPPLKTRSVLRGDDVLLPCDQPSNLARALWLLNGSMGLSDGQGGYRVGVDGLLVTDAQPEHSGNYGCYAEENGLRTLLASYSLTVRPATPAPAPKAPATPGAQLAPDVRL

B1: ADP239 (protein)
chain: NNLDKNKNFIQYKNFKKNKAYKYKNNNNNIIIINSHSHSNSHSNSHSHSNSHSNSHSHSNSHSNSHSHSNSHSHSHSNSHSNSHSHSSTQNSLYHDTNQANFLKPTSFFLYKHHVYFNQKYKKDPNILNKLKVPRNHIFHINKCDLNYYIQNYEFFFFFPDYYEYSHLYIRLDKLFYFQRCGCDTNIKKTKKRNQNIFNNMLGMKEKDTYLQNEICDIYWNYLKDDNTYDKYNFAIINYIKNIIKKMYRYLYIYKVFVLKQFYRIVYYNQGIRNFYYMLFSYIYNKGSIIYNYNQMYFKKHRKKQTIIRSKRFMNEHIKEEDVDYNIVKDEKDKSIQSTEQKSYLKNNAIQYFQCFLDKAMENKNAENELDKWIDPQSKSCYCSEEFAEPCTSEDLVDINNINQIMDNAFCEYNNNDNNNNDNNKNNNNNINNIINIYDNNILGDNVKNIFVALSEYKILQCNDKEKKDIIKKEQLYNYCKYGLNIWDNKNMYDYLNCLNVISYNKKDDKTCIRKCENIKKLCNIVAQFYSFEVCKKYYENNKHTEDIYINNFKYFSDHCKYIDPTNRGLVLCKHKNVECVYSQWSEWSTCSKTCIENEYDTNSARTRTRILLNKFEVPSKSCSFIINEKNNLMDINFCSYLPFCNKNNDMKKKDDERIMPFVISIKEIEKLNTLKYLNNDDNDLLNENYKNYESVHKNNECKVTDMYQYEYAISYNEKNKACSCPNNQAPCYFKDIYNSESWKKSLHILCKHNPHINVITADYIIIDCNMAISIKKKEIAVNTYLAMTFNCHSDIFQYIFCAKNIQSIRTN
modifications: bait human Fc-tagged dimer; N-glycosylation sequons mutated in Plasmodium baits
Regarding B1, the binding score with ADP262 is 6.08.

B2: ADP243 (protein)
chain: SDSYSTGGNEKEKIFMDNYKYMWTYIYFLQKRIMMKKLSHPLYMSKKFILLHNPKDIEEFRIPLKDTLWSYVDRNSIKGFININLDSIFDIDLKEYYVHDKENMANSEKSEDLECIDAYVQKTNEIYYNMADTKDEAYIFICKKCKHIYKDIKECREKSMQLMIQNMKITVPQIRLKYDKKNRNNEEIIINIPVTYVLSNLLSSLKKTVTYNTDDLNNACNVLIKMLHLDLLKILYNLQYHNGIFNGITEKYLIEFRNIFVKRQKTNTEDNNDMIWEECFVLKKSIDKIMNINSFLLTKSRNRYMDYLQNRRKRYRDILFMITYNVADMNLNTYIKSIYNYIHISTKIIEDIQYIYNQEVYATFFVRTELIETYLLRNPKQLKNTCSIYIMITISWFFNQINIGMYNKNKNVYDLFKEKFSKSNVKQIINSIYTNNVENKANILQICNDAMTNTIELIKKVIKNYYKQNNVLSNYNINFAGLIKFIDIQILRMKFIQSTLEKQPLIEYDTLNDDHLNNDAIIKRENMVCMMKYISNKINTYISLLKKSDLQTIMLQNYDKYNIYLDTYFTHNENVFFCSSPGQYLIIKIFFYSFFNILNIYG
modifications: bait human Fc-tagged dimer; N-glycosylation sequons mutated in Plasmodium baits
Turning to B2, the results for the binding score with ADP155 and with ADP154 were 8.67 and 8.73, respectively.

B3: ADP244 (protein)
chain: GIITGKLNYFGTFSLKIFAKTYFQYKINTYSNLYSYCGISQEYNKAKSTCESCPIGTFWNSEKLLCENCQKYIENTATLKNGAKLKTDCLCSPGYEYSDKSSKCEKCKPGYYKKSVGNFICIKGCPINEKSITYGAKSYAEMDCKCIEGYYRKEDKCVLCLSNYYCPGNELIKPCDKNKISKEGVIHKNDCICKENYIKDNKNNNCVYCASIAKILGKPIYCSLCDPIYFHEDIYKNIFLLPNNIHNYGLINNIYNYDEDLSLQGNIMKYAYFHKTTNIERNFAHYINIKNIYHTFNNNINNYDYLTNSKFAIEIDIPEPKKCIFCDSGYYIKKKKCISCTTKYCEGFNHNPKACPKNSVVNKMKASSIFDCSCKRGYGILNERRNAYSNTITCQICPQNFFKHIISDDSCFPCPLYTYTLNQGATSILQCLPKKGYFIYMFKSINIDYLRYKFDINTENRIYNYFENNNKIFDEDVYNFFLNKQYSKFFYNTENK
modifications: bait human Fc-tagged dimer; N-glycosylation sequons mutated in Plasmodium baits
In the experiment with ADP378, B3 gave a binding score of 6.32.

B4: ADP195 (protein)
chain: FRKYDKNKNKILISHSINNNNNAIKNNNNNNNAIKNNNNNNNAIKNNNNNNNAFSATSFSSEKNKNKAYTNVLKKKNIYIREESNKATNIKEDEEKNKKINNNDKETNYAFLSLKFFPFILTSLLHTGINQIPRNTEIELYEFEKSPMIRHMLVAEERKN
modifications: bait human Fc-tagged dimer; N-glycosylation sequons mutated in Plasmodium baits
As for B4, the binding score in the experiment with ADP385 was determined as 18.7; in the experiment with ADP318, 5.72.
